Measured values reported in article PMC10784468 (Nature Communications, 2024).
Where “and” joins values, the source holds several entries; their conditions need not be identical. Equal entries are not always repeated. Where two headings read alike, the source gives them in different places. Positions of bridges follow the written chain, without caps; N, C: chain ends. Residues, ends and D or L forms follow the SMILES beside them. *: point of attachment. X1 = O=C(O)c1ccc(-c2c3nc(c(-c4ccc(C(=O)O)cc4)c4ccc([nH]4)c(-c4ccc(C(=O)*)cc4)c4nc(c(-c5ccc(C(=O)O)cc5)c5ccc2[nH]5)C=C4)C=C3)cc1; X2 = O=C(O)C/C(=C/C(=O)*)C(=O)O

Legend:
[1] = test system: MCF-7/MDR xenograft tumors; experiment: In vivo antitumor evaluation in MCF-7/MDR xenografted model
Excerpt: Female BALB/c nude mice (~8 weeks, 18 g) were subcutaneously inoculated with 5 × 10^6 MCF-7/MDR cells resuspended in Matrigel. […] Individual tumor volume and bodyweight of mouse after different treatment was collected at 2-days intervals for analysis. Mice were killed at 20 days post treatment unless endpoints were exceeded. Moreover, tumors from all groups were harvested under euthanasia and weighed for analysis at the end of treatment.

[2] = remark: listed apart in the source
Protocol: The main organs (heart, liver, spleen, lung, kidney and intestine) of healthly BALB/c nude mice (~8 weeks old, 18 g) were collected under euthanasia after treatment with PBS and Gi-F-CAA (8, 12 and 16 mg/kg in 100 μL PBS) for 1 day. Afterwards, the histology evaluation by Hematoxylin and Eosin (H&E) Staining was carried out by Servicebio Technology Co., Ltd. (Wuhan, China). Meanwhile, the whole blood and serum of healthly BALB/c nude mice (~8 weeks old, 18 g) were collected after treatment with PBS and Gi-F-CAA (8, 12 and 16 mg/kg in 100 μL PBS) for 1 days. The blood biochemistry analysis was performed with Hitachi Automatic Biochemical Analyzer 7100. The blood routine analysis was carried out by Vital River Laboratory Animal Technology Co., Ltd. (Beijing, China).

[3] = test system: EJ cells; experiment: Intracellular LPO fluorescence imaging (C11-BODIPY); type: cell-based; conditions: pH 6.5, 40 μM, 8 h
Protocol: Initially, EJ cells (5 × 10^5) were cultured in confocal dish with a CO2 incubator overnight at 37 °C. […] Next, EJ cells were collected and washed with PBS for 3 times.

[4] = healthy mice, i.v. 8, 12 and 16 mg/kg, 1 day post-injection

CC(C)C[C@H](NC(=O)c1ccc(-c2c3nc(c(-c4ccc(C(=O)O)cc4)c4ccc([nH]4)c(-c4ccc(C(=O)O)cc4)c4nc(c(-c5ccc(C(=O)O)cc5)c5ccc2[nH]5)C=C4)C=C3)cc1)C(=O)N[C@@H](CCCCNC(=O)/C=C(/CC(=O)O)C(=O)O)C(=O)N[C@@H](CC(C)C)C(=O)N[C@@H](CCCCN)C(=O)N[C@@H](CC(C)C)C(=O)N[C@@H](CCCCNC(=O)/C=C(/CC(=O)O)C(=O)O)C(=O)NCC(=O)N[C@@H](C)C(=O)N[C@H]1CSSC[C@@H](C(=O)N2CCC[C@H]2C(=O)N[C@H](C(=O)O)C(C)C)NC(=O)[C@@H]2CCCN2C(=O)[C@H](Cc2ccc(O)cc2)NC(=O)[C@H](CC(C)C)NC(=O)[C@@H]2CCCN2C(=O)[C@H](CC(C)C)NC(=O)[C@H](Cc2c[nH]c3ccccc23)NC(=O)[C@H](CC(N)=O)NC1=O [Gi-F-CAA] (X1-LK(X2)LKLK(X2)GACNWLPLYPCPV-OH; disulfide 9-17; C-terminus assumed)
DLS size distribution, Number (%): 0.000191% and 14% and 7.4% | mean tumor volume at 20 days post injection ([1]; MCF-7/MDR xenograft, six i.v. injections every 2 days, Gi-F-CAA 8 mg/kg, DOX and CPT 3 mg/kg, n = 6): 623 mm^3 | TGI rate ([1]; MCF-7/MDR xenograft, six i.v. injections, Gi-F-CAA 8 mg/kg, DOX and CPT 3 mg/kg, 20 days): 66% | Tumor weight ([1]; mice 1): 0.59 g | Tumor weight ([1]; mice 2): 0.52 g | Tumor weight ([1]; mice 3): 0.51 g | Tumor weight ([1]; mice 4): 0.35 g | Tumor weight ([1]; mice 5): 0.37 g | Tumor weight ([1]; mice 6): 0.54 g | ALP ([2]; 8 mg/kg, mice 1): 152 U/L | ALT ([2]; 8 mg/kg, mice 1): 62 U/L | AST ([2]; 8 mg/kg, mice 1): 183 U/L | BUN ([2]; 8 mg/kg, mice 1): 13.2 mmol/L | CREA ([2]; 8 mg/kg, mice 1): 30.8 µmol/L | HGB ([2]; 8 mg/kg, mice 1): 15.7 g/dL | NEUT ([2]; 8 mg/kg, mice 1): 0.4 109/L | PLT ([2]; 8 mg/kg, mice 1): 985 109/L | RBC ([2]; 8 mg/kg, mice 1): 10.6 1012/L | WBC ([2]; 8 mg/kg, mice 1): 1.8 109/L | ALP ([2]; 8 mg/kg, mice 2): 159 U/L | ALT ([2]; 8 mg/kg, mice 2): 60 U/L | AST ([2]; 8 mg/kg, mice 2): 184 U/L | BUN ([2]; 8 mg/kg, mice 2): 14.42 mmol/L | CREA ([2]; 8 mg/kg, mice 2): 28.8 µmol/L | HGB ([2]; 8 mg/kg, mice 2): 15.4 g/dL | NEUT ([2]; 8 mg/kg, mice 2): 0.3 109/L | PLT ([2]; 8 mg/kg, mice 2): 1198 109/L | RBC ([2]; 8 mg/kg, mice 2): 10.1 1012/L | WBC ([2]; 8 mg/kg, mice 2): 1.5 109/L | ALP ([2]; 8 mg/kg, mice 3): 145 U/L | ALT ([2]; 8 mg/kg, mice 3): 56 U/L | AST ([2]; 8 mg/kg, mice 3): 193 U/L | BUN ([2]; 8 mg/kg, mice 3): 13.94 mmol/L | CREA ([2]; 8 mg/kg, mice 3): 31.6 µmol/L | HGB ([2]; 8 mg/kg, mice 3): 15.9 g/dL | NEUT ([2]; 8 mg/kg, mice 3): 0.3 109/L | PLT ([2]; 8 mg/kg, mice 3): 1073 109/L | RBC ([2]; 8 mg/kg, mice 3): 9 1012/L | WBC ([2]; 8 mg/kg, mice 3): 1.7 109/L | ALP ([2]; 8 mg/kg, mice 4): 159 U/L | ALT ([2]; 8 mg/kg, mice 4): 63 U/L | AST ([2]; 8 mg/kg, mice 4): 180 U/L | BUN ([2]; 8 mg/kg, mice 4): 13.15 mmol/L | CREA ([2]; 8 mg/kg, mice 4): 31 µmol/L | HGB ([2]; 8 mg/kg, mice 4): 15.3 g/dL | NEUT ([2]; 8 mg/kg, mice 4): 0.4 109/L | PLT ([2]; 8 mg/kg, mice 4): 1117 109/L | RBC ([2]; 8 mg/kg, mice 4): 10 1012/L | WBC ([2]; 8 mg/kg, mice 4): 2 109/L | ALP ([2]; 12 mg/kg, mice 1): 150 U/L | ALT ([2]; 12 mg/kg, mice 1): 61 U/L | AST ([2]; 12 mg/kg, mice 1): 192 U/L | BUN ([2]; 12 mg/kg, mice 1): 13.27 mmol/L | CREA ([2]; 12 mg/kg, mice 1): 30 µmol/L | HGB ([2]; 12 mg/kg, mice 1): 15.2 g/dL | NEUT ([2]; 12 mg/kg, mice 1): 0.4 109/L | PLT ([2]; 12 mg/kg, mice 1): 991 109/L | RBC ([2]; 12 mg/kg, mice 1): 9 1012/L | WBC ([2]; 12 mg/kg, mice 1): 1.9 109/L | ALP ([2]; 12 mg/kg, mice 2): 145 U/L | ALT ([2]; 12 mg/kg, mice 2): 63 U/L | AST ([2]; 12 mg/kg, mice 2): 191 U/L | BUN ([2]; 12 mg/kg, mice 2): 13.11 mmol/L | CREA ([2]; 12 mg/kg, mice 2): 28.5 µmol/L | HGB ([2]; 12 mg/kg, mice 2): 15.4 g/dL | NEUT ([2]; 12 mg/kg, mice 2): 0.3 109/L | PLT ([2]; 12 mg/kg, mice 2): 1110 109/L | RBC ([2]; 12 mg/kg, mice 2): 9.3 1012/L | WBC ([2]; 12 mg/kg, mice 2): 1.6 109/L | ALP ([2]; 12 mg/kg, mice 3): 153 U/L | ALT ([2]; 12 mg/kg, mice 3): 60 U/L | AST ([2]; 12 mg/kg, mice 3): 190 U/L | BUN ([2]; 12 mg/kg, mice 3): 12.9 mmol/L | CREA ([2]; 12 mg/kg, mice 3): 30.6 µmol/L | HGB ([2]; 12 mg/kg, mice 3): 15.6 g/dL | NEUT ([2]; 12 mg/kg, mice 3): 0.3 109/L | PLT ([2]; 12 mg/kg, mice 3): 1144 109/L | RBC ([2]; 12 mg/kg, mice 3): 10 1012/L | WBC ([2]; 12 mg/kg, mice 3): 1.9 109/L | ALP ([2]; 12 mg/kg, mice 4): 146 U/L | ALT ([2]; 12 mg/kg, mice 4): 60 U/L | AST ([2]; 12 mg/kg, mice 4): 190 U/L | BUN ([2]; 12 mg/kg, mice 4): 13.29 mmol/L | CREA ([2]; 12 mg/kg, mice 4): 29.9 µmol/L | HGB ([2]; 12 mg/kg, mice 4): 16.4 g/dL | NEUT ([2]; 12 mg/kg, mice 4): 0.3 109/L | PLT ([2]; 12 mg/kg, mice 4): 1087 109/L | RBC ([2]; 12 mg/kg, mice 4): 10.1 1012/L | WBC ([2]; 12 mg/kg, mice 4): 2.1 109/L | ALP ([2]; 16 mg/kg, mice 1): 150 U/L | ALT ([2]; 16 mg/kg, mice 1): 57 U/L | AST ([2]; 16 mg/kg, mice 1): 182 U/L | BUN ([2]; 16 mg/kg, mice 1): 14.18 mmol/L | CREA ([2]; 16 mg/kg, mice 1): 31.7 µmol/L | HGB ([2]; 16 mg/kg, mice 1): 15.7 g/dL | NEUT ([2]; 16 mg/kg, mice 1): 0.4 109/L | PLT ([2]; 16 mg/kg, mice 1): 1194 109/L | RBC ([2]; 16 mg/kg, mice 1): 9.6 1012/L | WBC ([2]; 16 mg/kg, mice 1): 2 109/L | ALP ([2]; 16 mg/kg, mice 2): 145 U/L | ALT ([2]; 16 mg/kg, mice 2): 56 U/L | AST ([2]; 16 mg/kg, mice 2): 188 U/L | BUN ([2]; 16 mg/kg, mice 2): 13.21 mmol/L | CREA ([2]; 16 mg/kg, mice 2): 29.4 µmol/L | HGB ([2]; 16 mg/kg, mice 2): 15.3 g/dL | NEUT ([2]; 16 mg/kg, mice 2): 0.3 109/L | PLT ([2]; 16 mg/kg, mice 2): 984 109/L | RBC ([2]; 16 mg/kg, mice 2): 10.5 1012/L | WBC ([2]; 16 mg/kg, mice 2): 1.5 109/L | ALP ([2]; 16 mg/kg, mice 3): 148 U/L | ALT ([2]; 16 mg/kg, mice 3): 64 U/L | AST ([2]; 16 mg/kg, mice 3): 180 U/L | BUN ([2]; 16 mg/kg, mice 3): 12.87 mmol/L | CREA ([2]; 16 mg/kg, mice 3): 28.9 µmol/L | HGB ([2]; 16 mg/kg, mice 3): 15.1 g/dL | NEUT ([2]; 16 mg/kg, mice 3): 0.3 109/L | PLT ([2]; 16 mg/kg, mice 3): 1087 109/L | RBC ([2]; 16 mg/kg, mice 3): 10.6 1012/L | WBC ([2]; 16 mg/kg, mice 3): 1.9 109/L | ALP ([2]; 16 mg/kg, mice 4): 146 U/L | ALT ([2]; 16 mg/kg, mice 4): 59 U/L | AST ([2]; 16 mg/kg, mice 4): 193 U/L | BUN ([2]; 16 mg/kg, mice 4): 12.98 mmol/L | CREA ([2]; 16 mg/kg, mice 4): 32.5 µmol/L | HGB ([2]; 16 mg/kg, mice 4): 15 g/dL | NEUT ([2]; 16 mg/kg, mice 4): 0.4 109/L | PLT ([2]; 16 mg/kg, mice 4): 1072 109/L | RBC ([2]; 16 mg/kg, mice 4): 9.8 1012/L | WBC ([2]; 16 mg/kg, mice 4): 1.9 109/L | blood routine examination (WBC, RBC, PLT, LYMPH, NEUT) ([2]; healthy mice, i.v. 8, 12 and 16 mg/kg, 1 day): comparable with that of PBS group | hepatic and renal function markers (ALT, AST, ALP, BUN, CRE) [2, 4]: normal ranges of values | histopathology (H&E) of major organs [2, 4]: no remarkable histopathological damages | intracellular LPO (BODIPY 581/591 C11) [3]: extensive accumulation of LPO
